The values that follow come from patent publication US20030175271A1 (Kyowa Kirin, published 2003).

The target of this experiment is ^125I-labeled human VEGF (human, UniProt P15692-4 27-191, limits assumed, 125I-labeled). The experiment in a line: competition against ^125I-VEGF (4 ng/ml) binding to coated KDR-7N-Fc. How it is done:
Methanol was dispensed in 100 μl portions into wells of a 96-well Immobilon™-P Filtration Plate (manufactured by Millipore) to give hydrophilic nature to the PVDF membrane on the bottom of the plate. […] After washing, PBS containing 1% bovine serum albumin (BSA) was added in 200 μl/well portions and the reaction was carried out at room temperature for 30 minutes to block the remaining active residues.

Sequence of ^125I-labeled human VEGF (P15692 other isoform, or with tags, fused parts or gaps limits assumed): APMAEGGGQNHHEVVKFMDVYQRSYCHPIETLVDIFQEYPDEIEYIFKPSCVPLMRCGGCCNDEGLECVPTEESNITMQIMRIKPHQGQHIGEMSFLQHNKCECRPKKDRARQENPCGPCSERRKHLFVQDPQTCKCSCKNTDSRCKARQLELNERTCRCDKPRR

B1: soluble human VEGF receptor KDR-1N-Fc (Fc fusion)
chain: ASVGLPSVSLDLPRLSIQKDILTIKANTTLQITCRGQRDLDWLWPNNQSGSEQRVEVTECSDGLFCKTLTIPKVIGNDTGAYKCFYRETDLASVIYVYVQDYRS
notes: not shown: linker #1 (6 residues)
In the case of B1, the binding result was “no binding”.
